Here are results for four molecules from patent US20240101700A1 (BIOCON, published 2024).

Assay [1] deals with T1, CD6 (human, UniProt P30203 18-668, tyrosine phosphorylation of the cytoplasmic domain (sites not given)).
T1 construct: whole, on cells; Endogenous CD6 of human PBMCs; also called CD6 receptor; hCD6
T1 sequence (looked up): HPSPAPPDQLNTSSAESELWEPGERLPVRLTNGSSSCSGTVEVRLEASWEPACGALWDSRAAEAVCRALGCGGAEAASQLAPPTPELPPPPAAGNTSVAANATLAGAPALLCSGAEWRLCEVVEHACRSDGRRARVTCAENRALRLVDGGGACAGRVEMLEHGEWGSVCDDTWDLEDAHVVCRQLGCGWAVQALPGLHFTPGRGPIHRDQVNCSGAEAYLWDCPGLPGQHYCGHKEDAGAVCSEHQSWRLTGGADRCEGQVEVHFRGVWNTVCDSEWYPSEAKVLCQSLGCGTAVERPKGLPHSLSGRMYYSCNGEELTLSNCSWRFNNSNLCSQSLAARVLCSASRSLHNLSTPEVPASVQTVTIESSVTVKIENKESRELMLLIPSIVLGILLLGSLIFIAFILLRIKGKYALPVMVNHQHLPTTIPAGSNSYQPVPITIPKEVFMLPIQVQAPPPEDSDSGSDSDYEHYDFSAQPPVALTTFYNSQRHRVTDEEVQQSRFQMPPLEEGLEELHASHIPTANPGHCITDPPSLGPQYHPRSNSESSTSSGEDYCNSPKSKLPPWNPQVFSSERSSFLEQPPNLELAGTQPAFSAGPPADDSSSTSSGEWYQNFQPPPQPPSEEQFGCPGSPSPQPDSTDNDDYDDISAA
The experiment in a line: cell-based or functional assay.

Assay [2] addresses T1, CD6. The experiment in a line: co-immunoprecipitation with CD6 (pulled down by itolizumab) and immunoblot; PBMCs on plate-bound ALCAM against no ALCAM. For orientation: Immunoblotting shows a protein as a band on a membrane.
Assay [3] concerns the target T1, CD6. Nature of the assay: immunoprecipitation of CD6 from human PBMC lysates and CD6 immunoblot. The method, then: In these experiments, PBMC were treated with 0.5 ng/ml anti-CD3 antibody (OKT 3) for 24 h in presence or absence of itolizumab or Iso Ab antibody. Cells were harvested and CD6 was immune-precipitated with itolizumab or Iso Ab. 10% total lysate served as input control samples. Both immune precipitated and input control samples were immune blotted and analyzed.

In the assay with CD6 [1], “Fc-ALCAM (from UniProt Q13740 28-527) (Fc fusion)” yielded a CD6 tyrosine phosphorylation above 2.5 fold; a phosphorylation of CD6 associated SHP1 and SHP2 of 3 to 4 fold.

In the assay with CD6 [2], SLP-76 (from UniProt Q13094 1-533) yielded a fold increase of association with CD6 of 3 to 4 fold.

As for “Zap70 (from UniProt P43403 1-619) (enzyme)”, in the assay with CD6 [2], the fold increase of association with CD6 was 3 to 4 fold.

B1: itolizumab (antibody, human IgG1, kappa, V domains shown)
VH: EVQLVESGGGLVKPGGSLKLSCAASGFKFSRYAMSWVRQAPGKRLEWVATISSGGSYIYYPDSVKGRFTISRDNVKNTLYLQMSSLRSEDTAMYYCARRDYDLDYFDSWGQGTLVTVSS
VL: DIQMTQSPSSLSASVGDRVTITCKASRDIRSYLTWYQQKPGKAPKTLIYYATSLADGVPSRFSGSGSGQDYSLTISSLESDDTATYYCLQHGESPFTLGSGTKLEIKR
notes: Humanized IgG1, produced at Biocon Ltd, used in soluble form; also called T1h; humanized IgG1 isotype anti-CD6 monoclonal antibody
Turning to B1, the binding result with CD6 [3] is given as “binds”.
